Article PMC6939650 (Molecules and Cells, 2019)

Molecular target: the molecule itself
Assay: SEC-MALS

B1: MexT regulatory domain (domain or fragment, Pseudomonas aeruginosa, UniProt Q9I0Z0 95-304, looked up)
chain: PATSTAVFRIGLSDDVEFGLLPPLLRRLRAEAPGIVLVVRRANYLLMPNLLASGEISVGVSYTDELPANAKRKTVRRSKPKILRADSAPGQLTLDDYCARPHALVSFAGDLSGFVDEELEKFGRKRKVVLAVPQFNGLGTLLAGTDIIATVPDYAAQALIAAGGLRAEDPPFETRAFELSMAWRGAQDNDPAERWLRSRISMFIGDPDSL
stoichiometry N: 2
